Target: GST-hAKT2 (human, UniProt P31751 1-481)
Assay: pull-down

GST-hAKT2, sequence (P31751 whole entry): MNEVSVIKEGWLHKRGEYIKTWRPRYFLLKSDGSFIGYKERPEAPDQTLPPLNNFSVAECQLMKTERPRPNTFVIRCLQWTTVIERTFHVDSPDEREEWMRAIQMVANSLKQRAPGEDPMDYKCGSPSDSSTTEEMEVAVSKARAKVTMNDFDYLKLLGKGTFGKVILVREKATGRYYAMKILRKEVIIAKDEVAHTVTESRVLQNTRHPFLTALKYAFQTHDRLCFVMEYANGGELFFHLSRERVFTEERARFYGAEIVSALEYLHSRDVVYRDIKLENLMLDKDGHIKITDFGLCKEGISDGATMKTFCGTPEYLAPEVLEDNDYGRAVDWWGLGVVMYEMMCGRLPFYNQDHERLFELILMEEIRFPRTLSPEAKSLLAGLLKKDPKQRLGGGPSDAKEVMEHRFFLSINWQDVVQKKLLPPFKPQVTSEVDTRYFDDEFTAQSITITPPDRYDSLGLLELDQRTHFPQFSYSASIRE

B1: 6*His-hIRF3 (natural protein)
chain: MGTPKPRILPWLVSQLDLGQLEGVAWVNKSRTRFRIPWKHGLRQDAQQEDFGIFQAWAEATGAYVPGRDKPDLPTWKRNFRSALNRKEGLRLAEDRSKDPHDPHKIYEFVNSGVGDFSQPDTSPDTNGGGSTSDTQEDILDELLGNMVLAPLPDPGPPSLAVAPEPCPQPLRSPSLDNPTPFPNLGPSENPLKRLLVPGEEWEFEVTAFYRGRQVFQQTISCPEGLRLVGSEVGDRTLPGWPVTLPDPGMSLTDRGVMSYVRHVLSCLGGGLALWRAGQWLWAQRLGHCHTYWAVSEELLPNSGHGPDGEVPKDKEGGVFDLGPFIVDLITFTEGSGRSPRYALWFCVGESWPQDQPWTKRLVMVKVVPTCLRALVEMARVGGASSLENTVDLHISNSHPLSLTSDQYKAYLQDLVEGMDFQGPGES
Q: Does B1 bind?
A: Result: binds

Source: article PMC8922272 (The EMBO Journal, 2022)
